Data reported in article PMC13223232, “Structural basis for TRF2-RAP1 recruitment by EBNA1 at the EBV origin of replication” (Scientific Reports, 2025).

T1: EBNA1 Δ90–325 3x (E495A D499A E500A) (Epstein-Barr virus, UniProt P03211 1-641, Δ90–325 | E495A | D499A | E500A)
T1 construct: also called 3x mutant EBNA1; source: E. coli, purified (Ni-NTA, SEC); not shown: His6-SUMO, N-terminal, cleaved
T1 sequence: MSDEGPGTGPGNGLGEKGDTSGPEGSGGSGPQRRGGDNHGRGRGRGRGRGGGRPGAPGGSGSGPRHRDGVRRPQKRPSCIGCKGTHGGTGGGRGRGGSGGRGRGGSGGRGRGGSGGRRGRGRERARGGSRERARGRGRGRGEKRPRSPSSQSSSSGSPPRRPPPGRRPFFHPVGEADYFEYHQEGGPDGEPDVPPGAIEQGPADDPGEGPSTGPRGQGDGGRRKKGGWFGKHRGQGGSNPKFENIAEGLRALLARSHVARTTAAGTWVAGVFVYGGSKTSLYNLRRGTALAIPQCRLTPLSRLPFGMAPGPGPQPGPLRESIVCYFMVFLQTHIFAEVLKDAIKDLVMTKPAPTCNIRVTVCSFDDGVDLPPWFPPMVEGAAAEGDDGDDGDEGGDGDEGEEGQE

T2: full-length Rap1 (human, UniProt Q9NYB0 1-399)
T2 construct: also called TERF2IP; source: E. coli, purified (Ni-NTA, SEC); not shown: His6-SUMO, N-terminal, cleaved
T2 sequence (looked up): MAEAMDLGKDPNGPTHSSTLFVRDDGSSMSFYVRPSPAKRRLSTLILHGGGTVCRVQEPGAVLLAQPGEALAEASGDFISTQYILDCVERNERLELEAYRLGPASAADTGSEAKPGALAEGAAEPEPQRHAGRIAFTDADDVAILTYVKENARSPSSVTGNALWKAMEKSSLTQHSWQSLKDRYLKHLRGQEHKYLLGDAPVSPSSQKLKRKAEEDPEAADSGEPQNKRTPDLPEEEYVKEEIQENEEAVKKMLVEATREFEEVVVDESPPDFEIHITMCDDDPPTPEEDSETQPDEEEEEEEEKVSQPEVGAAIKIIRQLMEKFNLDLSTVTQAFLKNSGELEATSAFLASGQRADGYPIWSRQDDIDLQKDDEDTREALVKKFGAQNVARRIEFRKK

T3: full-length TRF2 (human, UniProt Q15554 1-542)
T3 construct: also called TERF2; source: E. coli, purified (Ni-NTA, SEC); not shown: His6-SUMO, N-terminal, cleaved
T3 sequence (looked up): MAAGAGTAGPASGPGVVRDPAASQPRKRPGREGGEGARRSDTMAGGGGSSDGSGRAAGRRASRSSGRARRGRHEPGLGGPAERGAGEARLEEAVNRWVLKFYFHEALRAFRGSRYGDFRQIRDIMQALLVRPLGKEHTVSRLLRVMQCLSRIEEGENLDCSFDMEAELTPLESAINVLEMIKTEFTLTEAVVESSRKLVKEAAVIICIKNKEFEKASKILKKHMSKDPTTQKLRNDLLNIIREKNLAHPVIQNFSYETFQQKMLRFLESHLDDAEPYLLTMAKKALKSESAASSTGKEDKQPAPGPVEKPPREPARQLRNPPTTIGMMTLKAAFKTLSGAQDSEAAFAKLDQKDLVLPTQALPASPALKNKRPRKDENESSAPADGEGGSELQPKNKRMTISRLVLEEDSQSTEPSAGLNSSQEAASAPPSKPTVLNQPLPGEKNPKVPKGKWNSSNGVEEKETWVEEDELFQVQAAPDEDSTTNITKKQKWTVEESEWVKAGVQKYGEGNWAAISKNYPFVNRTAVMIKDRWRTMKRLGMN

B1: full length TRF2/Rap1 complex (complex)
chain 1: T3 sequence (looked up)
chain 2: T2 sequence (looked up)
notes: also called pre-assembled TRF2-Rap1 complex; source: E. coli, each purified (Ni-NTA, SEC); pre-assembled complex purified by glycerol gradient; not shown: His6-SUMO, N-terminal, cleaved
B2: GST-TRFH domain (amino acids 85–287) (domain or fragment, human, UniProt Q15554 85-287, looked up)
chain: AGEARLEEAVNRWVLKFYFHEALRAFRGSRYGDFRQIRDIMQALLVRPLGKEHTVSRLLRVMQCLSRIEEGENLDCSFDMEAELTPLESAINVLEMIKTEFTLTEAVVESSRKLVKEAAVIICIKNKEFEKASKILKKHMSKDPTTQKLRNDLLNIIREKNLAHPVIQNFSYETFQQKMLRFLESHLDDAEPYLLTMAKKALK
notes: also called TRF2 homodimerization domain; TRF2 dimerization domain; source: E. coli, purified to near homogeneity; not shown: GST, N-terminal, kept
B3: EBNA1 459–607 (domain or fragment)
chain: RKKGGWFGKHRGQGGSNPKFENIAEGLRALLARSHVERTTDEGTWVAGVFVYGGSKTSLYNLRRGTALAIPQCRLTPLSRLPFGMAPGPGPQPGPLRESIVCYFMVFLQTHIFAEVLKDAIKDLVMTKPAPTCNIRVTVCSFDDGVDLP
notes: also called shorter EBNA1 459–607; core structured DBD; source: E. coli
B4: EBNA1 DNA binding domain (DBD) aa 401–607 (domain or fragment)
chain: GRRPFFHPVGEADYFEYHQEGGPDGEPDVPPGAIEQGPADDPGEGPSTGPRGQGDGGRRKKGGWFGKHRGQGGSNPKFENIAEGLRALLARSHVERTTDEGTWVAGVFVYGGSKTSLYNLRRGTALAIPQCRLTPLSRLPFGMAPGPGPQPGPLRESIVCYFMVFLQTHIFAEVLKDAIKDLVMTKPAPTCNIRVTVCSFDDGVDLP
notes: also called EBNA1 DBD; EBNA1 401–607; source: E. coli, purified (Ni-NTA, SEC); not shown: His6-SUMO, N-terminal, cleaved

Columns and labels:
[1] = target: T1, EBNA1 Δ90–325 3x (E495A D499A E500A); test: native gel or EMSA; pre-assembled TRF2-Rap1 complex (glycerol-gradient purified) serially diluted and added to pre-assembled ½ DS-EBNA1 complex (20 nM EBNA1 Δ90–325 WT, 3x or 8x, 5 nM ½ DS DNA); binding buffer with 300 mM KCl, pH 7.5; conditions: both partners purified
[2] = target: B4; test: native gel or EMSA; supershift of the ½ DS-EBNA1 complex by TRFH (no Myb domain); binding buffer lowered to 100 mM KCl, highest TRFH 10 µM (1000-fold stoichiometric excess); only a weak supershift under standard conditions (300 mM KCl); conditions: both partners purified
[3] = target: B2; test: as above; conditions: both partners purified
[4] = target: T2, full-length Rap1; test: cross-linking; zero-length EDC/Sulfo-NHS cross-linking with LC-MS/MS; complex mixed 1 ½ DS DNA : 4 EBNA1 401–607 : 2.5 TRF2 : 2.5 Rap1, glycerol-gradient purified, 1 mg/mL in 20 mM MES pH 6.8, 100 mM NaCl, 1 mM MgCl2, 10 µM ZnCl2, 0.5 mM TCEP; 10 mM crosslinker, room temperature, 2 h; conditions: both partners purified
[5] = target: T3, full-length TRF2; test: as above; conditions: both partners purified
[6] = target: the molecule itself; test: cryo-EM structure; ½ DS + EBNA1 DBD + TRF2 + Rap1 (1 : 4 : 2.5 : 2.5), GraFix (10-30% glycerol, 0.125% glutaraldehyde); estimated 7.1 Å reconstruction
[7] = target: B1; test: native gel or EMSA; IRD700-labelled 60 bp ½ DS DNA probe (5 nM); Rap1, TRF2 or TRF2 + Rap1 titrated up to 480 nM without EBNA1, with EBNA1 401–607 or with EBNA1 Δ90–325; 10 mM HEPES pH 7.5, 300 mM KCl, 5 mM MgCl2, 1 mM ZnCl2, 5 mM BME, 0.05% NP-40, 5% glycerol; 1.4% agarose gel; all proteins meet on the DNA; conditions: both partners purified

B1
fold weaker binding than with WT EBNA1 [1]: ~2 fold

B2
binding result [2]: binds

B3
binding result [3]: binds

B4
binding result [4]: binds
binding result [5]: binds
binding result [6]: binds
binding result [7]: binds
